Test results from patent publication US20070286858A1 (Pfizer, published 2007).

What was measured:
cynomolgus monkey RAGE = target: T1, cynomolgus monkey RAGE (cynomolgus monkey (Macaca fascicularis), UniProt Q15109 23-404 (human entry)); test: cell-based ELISA, 293 cells transfected with cynomolgus monkey RAGE
T1 construct: On transfected 293 cells or endogenous in monkey lung sections; also called 293-cyno monkey RAGE; RAGE in monkey lung
T1 chain: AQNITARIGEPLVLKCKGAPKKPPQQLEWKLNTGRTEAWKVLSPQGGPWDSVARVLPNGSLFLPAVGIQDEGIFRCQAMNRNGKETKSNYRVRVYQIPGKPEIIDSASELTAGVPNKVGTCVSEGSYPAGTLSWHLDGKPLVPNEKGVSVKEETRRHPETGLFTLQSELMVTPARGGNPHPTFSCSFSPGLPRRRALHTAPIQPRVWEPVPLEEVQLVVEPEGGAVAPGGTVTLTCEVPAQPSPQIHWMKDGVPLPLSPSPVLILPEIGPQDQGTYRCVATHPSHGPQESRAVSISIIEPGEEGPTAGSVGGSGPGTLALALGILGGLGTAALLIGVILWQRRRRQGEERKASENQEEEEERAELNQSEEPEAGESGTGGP
Procedure: (§1) Human embryonic kidney 293 cells (American Tissue Type Culture, Manassas, Va.) cells were plated at 5×10⁶ cells per 10 cm² tissue culture plate and cultured overnight at 37° C. The next day cells were transfected with RAGE expression plasmids (pAdori1-3 vector encoding mouse, human, baboon, cynomologus monkey or rabbit RAGE) using LF2000 reagent (Invitrogen, Carlsbad Calif.) at a 4:1 ratio of reagent to plasmid DNA using the manufacturers protocol. Cells were harvested 48 hrs post-transfection using trypsin, washed once with phosphate buffered saline (PBS), then suspended in growth media without serum at a concentration of 2×10⁶ cells/ml.
(§2) Primary antibodies at 1 μg/ml were serially diluted at 1:2 or 1:3 in PBS containing 1% bovine serum albumin (BSA) in a 96-well plate. RAGE-transfected 293 cells or control parental 293 cells (50 μl) at 2×10⁶ cells/ml in serum-free growth medium were added to U-bottom 96 well plate for a final concentration of 1×10⁵ cells/well. The cells were centrifuged at 1600 rpm for 2 minutes. The supernatants were gently discarded by hand with a one-time swing and the plate was patted gently to loose the cell pellet. […] The cells were centrifuged and the supernatants are transferred to a fresh plate and read at 450 nm (Soft MAX pro 4.0, Molecular Devices Corporation, Sunnyvale, Calif.).

[1] = target: T2, human RAGE-Fc fusion protein (human, UniProt Q15109 23-344); test: ligand competition ELISA, panel Blocks hRAGE-Fc interaction with S100-A; blocked ligand S100-A
T2 construct: also called hRAGE-Fc; huRAGE-Fc; not shown: Fc domain of human IgG

murine RAGE, full length = target: T3, murine RAGE, full length (mouse, UniProt Q62151 23-402); test: cell-based ELISA, 293 cells transfected with murine RAGE
T3 construct: Expressed on 293 cells; also called mRAGE; 293-murine RAGE
T3 chain: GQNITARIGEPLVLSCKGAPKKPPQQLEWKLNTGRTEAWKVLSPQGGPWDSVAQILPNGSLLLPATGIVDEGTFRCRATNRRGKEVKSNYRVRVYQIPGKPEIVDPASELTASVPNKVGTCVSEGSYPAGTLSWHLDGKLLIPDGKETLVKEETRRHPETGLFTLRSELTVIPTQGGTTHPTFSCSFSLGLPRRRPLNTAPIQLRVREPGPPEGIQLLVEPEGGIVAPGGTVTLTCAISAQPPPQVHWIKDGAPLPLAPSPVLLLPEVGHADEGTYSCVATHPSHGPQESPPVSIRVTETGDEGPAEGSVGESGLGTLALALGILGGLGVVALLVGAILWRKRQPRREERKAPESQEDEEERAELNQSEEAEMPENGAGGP
Procedure: as §1, §2

[2] = target: T2, human RAGE-Fc fusion protein; test: antibody competition ELISA on hRAGE-Fc; competitor biotinylated XT-M4
[3] = target: T2, human RAGE-Fc fusion protein; test: ligand competition ELISA, panel Blocks hRAGE-Fc interaction with S100-B; blocked ligand S100-B
[4] = target: T2, human RAGE-Fc fusion protein; test: direct binding ELISA, coated hRAGE-Fc
Procedure: Antibodies were purified from hybridoma supernatants using standard procedures. Purified antibodies were evaluated for binding to soluble forms of RAGE with the use of ELISA. […] After washing and blocking with PBS containing 1% BSA and 0.05% Tween-20, 100 ul of sample (samples were in several forms: diluted immune serum, hybridoma supernatants, or purified antibodies, as indicated) was added and incubated for 1 hour at room temperature. The plates were washed with PBS, pH 7.2 and bound anti-RAGE antibodies were detected with the use of peroxidase-conjugated goat, anti-mouse IgG (H+L) (IgG) (Pierce, Rockford, Ill.) followed by incubation with the substrate TMB (BioFX Laboratories Owings Mills, Md. Laboratories). Absorbance values were determined at 450 nm in a spectrophotometer. The concentrations of monoclonal antibodies were determined with the use of peroxidase-labeled goat, anti-mouse IgG (Fcγ) (Pierce Rockford, Ill.) and a standard curve was generated by a purified, isotype-matched mouse IgG.

[5] = target: T2, human RAGE-Fc fusion protein; test: ligand competition ELISA, panel Blocks hRAGE-Fc interaction with HMGB1; blocked ligand HMGB1
Procedure: Wells were washed and blocked as described above and exposed to 100 μl of pre-incubated mixtures of RAGE-Fc or TrkB-Fc (a non-specific Fc control), at 0.1 μg/ml, plus various forms of the indicated antibody preparation (dilutions of immune sera, hybridoma supernatants or purified antibodies) for 1 hour at room temperature.

B1: XT-M4 (antibody, rat IgG2b, V domains shown)
VH: EVQLVESGGGLVQPGRSLKLSCVVSGFTFNNYWMTWIRQTPGKGLEWVASINNSGDNTYYPDSVKDRFTISRDNAKSTLYLQMNSLRSEDTATYYCTRGGDITTGFDYWGQGVMVTVSS
VL: DIQMTQSPSSMSVSLGDTITITCRASQDVGIYVNWFQQKPGKSPRRMIYRATNLADGVPSRFSGSRSGSIYSLTISSLESEDVADYHCLEFDEHPLTFGSGTKVEIK
notes: also called 1mRAGEP3/10; rat XT-M4
- EC50 (cynomolgus monkey RAGE): ~2.33 nM
- IC50 (read off the curve) [1]: ~0.07 µg/mL
- EC50 (murine RAGE, full length): ~2.2 nM
- IC50 (read off the curve) [2]: ~0.4 µg/mL
- IC50 (read off the curve) [3]: ~0.1 µg/mL
- EC50 [4]: 0.3 nM
- IC50 (read off the curve) [5]: ~0.1 µg/mL
